Data from the MegaScale stability set (Tsuboyama et al. 2023).

B1: 6YSE (parent)
chain: HERALMVNRLQKLTRMLRVHPDPKWKQEQQELIKRLK

Variants of: B1
Assay: folding stability dG (cDNA display proteolysis); higher = more stable
Conditions: PBS, room temperature

Row | Variant | folding stability dG [kcal/mol]
1 | HERALMVNRLQKLTRMLRVHPDPKWSQEQQELIKRLK [K26S] | 0.461
2 | HERALMVNRLQKLTRMLRVHPDPKWMQEQQELIKRLK [K26M] | 1.29
3 | HERALMVNRLQKLTRMLRVHPDPKWGQEQQELIKRLK [K26G] | -0.052
4 | HERALMVNRLQKLTRMLRVHPDPKWHQEQQELIKRLK [K26H] | 1.01
5 | HERALMVNRLQKLTRMLRVHPDPKWQQEQQELIKRLK [K26Q] | 1.03
6 | HERALMVNRLQKLTRMLRVHPDPKWWQEQQELIKRLK [K26W] | 0.964
7 | HERALMVNRLQKLTRMLRVHPDPKWFQEQQELIKRLK [K26F] | 1.53
8 | HERALMVNRLQKLTRMLRVHPDPKWTQEQQELIKRLK [K26T] | 0.715
9 | HERALMVNRLQKLTRMLRVHPDPKWEQEQQELIKRLK [K26E] | 1.14
10 | HERALMVNRLQKLTRMLRVHPDPKWYQEQQELIKRLK [K26Y] | 1.17
11 | HERALMVNRLQKLTRMLRVHPDPKWNQEQQELIKRLK [K26N] | 0.211
12 | HERALMVNRLQKLTRMLRVHPDPKWVQEQQELIKRLK [K26V] | 1.16
13 | HERALMVNRLQKLTRMLRVHPDPKWRQEQQELIKRLK [K26R] | 1.32
14 | HERALMVNRLQKLTRMLRVHPDPKWLQEQQELIKRLK [K26L] | 1.45
15 | HERALMVNRLQKLTRMLRVHPDPKWIQEQQELIKRLK [K26I] | 1.4
16 | HERALMVNRLQKLTRMLRVHPDPKWKQEEQELIKRLK [Q29E] | 0.805
17 | HERALMVNRLQKLTRMLRVHPDPKWKQEYQELIKRLK [Q29Y] | 1.7
18 | HERALMVNRLQKLTRMLRVHPDPKWKQEMQELIKRLK [Q29M] | 1.72
19 | HERALMVNRLQKLTRMLRVHPDPKWKQEWQELIKRLK [Q29W] | 1.47
20 | HERALMVNRLQKLTRMLRVHPDPKWKQETQELIKRLK [Q29T] | 0.863
21 | HERALMVNRLQKLTRMLRVHPDPKWKQEAQELIKRLK [Q29A] | 1.48
22 | HERALMVNRLQKLTRMLRVHPDPKWKQEIQELIKRLK [Q29I] | 1.69
23 | HERALMVNRLQKLTRMLRVHPDPKWKQESQELIKRLK [Q29S] | 0.65

Row | Variant | folding stability dG [kcal/mol]
24 | HERALMVNRLQKLTRMLRVHPDPKWKQEHQELIKRLK [Q29H] | 0.663
25 | HERALMVNRLQKLTRMLRVHPDPKWKQECQELIKRLK [Q29C] | 1.52
26 | HERALMVNRLQKLTRMLRVHPDPKWKQELQELIKRLK [Q29L] | 1.85
27 | HERALMVNRLQKLTRMLRVHPDPKWKQEVQELIKRLK [Q29V] | 1.68
28 | HERALMVNRLQKLTRMLRVHPDPKWKQERQELIKRLK [Q29R] | 1.47
29 | HERALMVNRLQKLTRMLRVHPDPKWKQEFQELIKRLK [Q29F] | 1.53
30 | HERALMVNRLQKLTRMLRVHPDPKWKQEDQELIKRLK [Q29D] | -0.859
31 | HERALMVNRLQKLTRMLRVHPDPKWKQEQDELIKRLK [Q30D] | 0.872
32 | HERALMVNRLQKLTRMLRVHPDPKWKQEQGELIKRLK [Q30G] | 0.68
33 | HERALMVNRLQKLTRMLRVHPDPKWKQEQEELIKRLK [Q30E] | 1.38
34 | HERALMVNRLQKLTRMLRVHPDPKWKQEQFELIKRLK [Q30F] | 0.851
35 | HERALMVNRLQKLTRMLRVHPDPKWKQEQAELIKRLK [Q30A] | 1.07
36 | HERALMVNRLQKLTRMLRVHPDPKWKQEQCELIKRLK [Q30C] | 1.75
37 | HERALMVNRLQKLTRMLRVHPDPKWKEEQQELIKRLK [Q27E] | 1.42
38 | HERALMVNRLQKLTRMLRVHPDPKWKYEQQELIKRLK [Q27Y] | 0.821
39 | HERALMVNRLQKLTRMLRVHPDPKWKMEQQELIKRLK [Q27M] | 1.38
40 | HERALMVNRLQKLTRMLRVHPDPKWKTEQQELIKRLK [Q27T] | 1.01
41 | HERALMVNRLQKLTRMLRVHPDPKWKVEQQELIKRLK [Q27V] | 0.985
42 | HERALMVNRLQKLTRMLRVHPDPKWKSEQQELIKRLK [Q27S] | 1.04
43 | HERALMVNRLQKLTRMLRVHPDPKWKGEQQELIKRLK [Q27G] | 0.59
44 | HERALMVNRLQKLTRMLRVHPDPKWKDEQQELIKRLK [Q27D] | 0.957
45 | HERALMVNRLQKLTRMLRVHPDPKWKREQQELIKRLK [Q27R] | 1.23
46 | HERALMVNRLQKLTRMLRVHPDPKWKAEQQELIKRLK [Q27A] | 1.6

Row | Variant | folding stability dG [kcal/mol]
47 | HERALMVNRLQKLTRMLRVHPDPKWKLEQQELIKRLK [Q27L] | 1.62
48 | HERALMVNRLQKLTRMLRVHPDPKWKFEQQELIKRLK [Q27F] | 1.14
49 | HERALMVNRLQKLTRMLRVHPDPKWKKEQQELIKRLK [Q27K] | 1.46
50 | HERALMVNRLQKLTRMLRVHPDPKWKIEQQELIKRLK [Q27I] | 1.22
51 | HERALMVNRLQKLTRMLRVHPDPKWKWEQQELIKRLK [Q27W] | 0.767
52 | HERALMVNRLQKLTRMLRVHPDPKWKHEQQELIKRLK [Q27H] | 1.21
53 | HERALMVNRLQKLTRMLRVHPDPKWKNEQQELIKRLK [Q27N] | 1.09
54 | HERALMVNRLQKLTRMLRVHPDPKWKQQQQELIKRLK [E28Q] | 0.317
55 | HERALMVNRLQKLTRMLRVHPDPKWKQIQQELIKRLK [E28I] | 1.05
56 | HERALMVNRLQKLTRMLRVHPDPKWKQDQQELIKRLK [E28D] | -0.285
57 | HERALMVNRLQKLTRMLRVHPDPKWKQYQQELIKRLK [E28Y] | 0.612
58 | HERALMVNRLQKLTRMLRVHPDPKWKQSQQELIKRLK [E28S] | -0.485
59 | HERALMVNRLQKLTRMLRVHPDPKWKQWQQELIKRLK [E28W] | 0.824
60 | HERALMVNRLQKLTRMLRVHPDPKWKQTQQELIKRLK [E28T] | -0.079
61 | HERALMVNRLQKLTRMLRVHPDPKWKQMQQELIKRLK [E28M] | 0.854
62 | HERALMVNRLQKLTRMLRVHPDPKWKQRQQELIKRLK [E28R] | -0.089
63 | HERALMVNRLQKLTRMLRVHPDPKWKQLQQELIKRLK [E28L] | 0.849
64 | HERALMVNRLQKLTRMLRVHPDPKWKQVQQELIKRLK [E28V] | 0.452
65 | HERALMVNRLQKLTRMLRVHPDPKWKQFQQELIKRLK [E28F] | 0.366
66 | HERALMVNRLQKLTRMLRVHPDPKWKQAQQELIKRLK [E28A] | 0.638
67 | HERALMVNRLQKLTRMLRVHPDPKWKQNQQELIKRLK [E28N] | -0.895
